# Data from publication PMC5444442, “Flagellin peptide flg22 gains access to long-distance trafficking in Arabidopsis via its receptor, FLS2” (Journal of Experimental Botany, 2017).
# Peptide text beside a SMILES is read from it. * marks the point of attachment. 5TAMRA = CN(C)c1ccc2c(c1)Oc1cc(N(C)C)ccc1C21OC(=O)c2cc(C(=O)*)ccc21; 5FAM = O=C1OC2(c3ccc(O)cc3Oc3cc(O)ccc32)c2ccc(C(=O)*)cc21; Cbz = O=C(OCc1ccccc1)*
# Key:
# [1] = test system: Arabidopsis plants; assay: Long-distance transport after surface application of fluorescent peptide; format: in vivo, Arabidopsis thaliana; conditions: 1 d
# Method: We applied 10–20 μl of 5 μM TAMRA–flg22 (without or with inhibitors: 50 μM MG132 or 50 mM BDM) to a filter paper disc placed on the adaxial side of one leaf of in vitro-grown Arabidopsis plants and distal tissues were imaged by confocal microscopy after 1 d. For experiments with mixed peptides, 5 μM TAMRA–flg22 + 10 μM FAM–scrambled peptides were used.
# (§1) [^14C]sucrose radioactivity was quantified in a scintillation counter.
# [2] = test system: Arabidopsis leaf discs; assay: Subcellular localization, uptake and accumulation of flg22 in leaf discs; format: cell-based, Arabidopsis thaliana; conditions: for non-specific uptake in presence of active flg22: Col leaf discs floated overnight on 2 μM FAM–scrambled peptide or 2 μM fluorescein mixed with 1 μM TAMRA–flg22 or 2 μM flg22, n≥8; for number of foci overlapping with FM4-64 / total number of green (Ff22) fluorescent foci: 18 picture areas (20 μm × 20 μm); for initial (up to 1.5 h) uptake/binding: leaf discs floated on 5 μM peptide, confocal fluorescence
# Method: Leaf discs were floated (abaxial side down) on 1–5 μM TAMRA–flg22 or 5–10 μM FAM–flg22 solution (in water) at room temperature for the indicated time (lower concentrations were used for overnight treatments). Inhibitors that affect endocytosis, MG132 (Sigma-Aldrich, 50 μM) or 2,3-butanedione monoxime (BDM; Sigma-Aldrich, 50 mM) were added at the same time as the peptides. FM4-64 (Invitrogen, 6–8 μM) or 2′,7′-bis-(2-carboxyethyl)-5-(and-6)-carboxyfluorescein (BCECF)-AM (cleaved by an endogenous plant esterase to BCECF, Invitrogen, 20–40 μM) mixed with peptide solution was vacuum infiltrated for 2 min into leaf discs ([Kang et al., 2014]) prior to incubation (floating on peptide/dye solution) for the indicated time. In some experiments FAM–Y-flg22 was used with results similar to FAM–flg22.
# For experiments with mixed peptides, leaf discs were floated for the indicated time on 2 μM FAM–flg22, FAM–scrambled peptide or fluorescein mixed with 1 μM TAMRA–flg22. In all experiments, leaf discs were washed after treatment by gently shaking for several minutes in water and the abaxial side was imaged by confocal or epifluorescence microscopy (see ‘Microscopy’). Fluorescence intensity profiles were generated with ImageJ, as in [Spallek et al., (2013)] and [Bozkurt et al. (2015)] (see ‘Data analysis’).
# Confocal images were obtained using a Zeiss LSM710 laser-scanning confocal microscope (Zeiss, Germany) as described in [Kang et al. (2014)]. Fluorescence was visualized as follows: GFP/FAM/fluorescein/BCECF excitation (ex) 488 nm/emission (em) 495–545 nm; TAMRA ex 561 nm/em 566–620 nm; FM4-64: ex 561 nm/em 686–758 nm. Green and red fluorescence was acquired for the same field using a sequential acquisition mode.
# Fluorescence intensity profiles were generated with ImageJ (http://rsb.info.nih.gov/ij, last accessed 6 April 2017) using RGB Profiler and Color Profiler. Fluorescent puncta were manually counted in 20 μm × 20 μm confocal image areas as in [Irani et al. (2012)] and [Chaparro-Garcia et al., (2015)] and shown as a fraction ([Irani et al., 2012]; [Choi et al., 2013]). […]
# [3] = test system: Arabidopsis plants; assay: Long-distance transport after surface application of radiolabeled peptide; format: in vivo, Arabidopsis thaliana; conditions: control; 1 μl droplet of Na125I (1 × 10^6 cpm) on abaxial side of one leaf; 3 h; five plants, three experiments, P=0.7
# Method: We applied 0.5–1 µM (specific activity 17 µCi µg^–1) ^125I-Y-flg22 or ^125I-Y-scrambled peptide in 10 mM MES pH 5.7 with 0.01% Tween-20 as a 1 µl droplet to the abaxial side of one mature leaf of 4-week-old soil-grown Arabidopsis plants and incubated for 3 h. For the control, 1 µl of 1.8 µM Na^125I (2.2 µCi µg^–1) in 5 mM NaOH–0.5 mM NaHSO2 (to prevent volatilization) with 0.005% Tween-20 was applied in the same way. Whole plants were sealed in plastic (Pinnacle Cover-All, Total Care), additionally contained in a plastic bag, and exposed for 5 d to phosphor screens for autoradiography.
# as §1
# [4] = test system: Arabidopsis plants; assay: Long-distance transport to distal tissues after infiltration of fluorescent peptide; format: in vivo, Arabidopsis thaliana; conditions: for detection within cells in distal part of infiltrated leaf: 10 μM infiltrated, 2 h, confocal microscopy
# Method: A 5–10 μM water solution of FAM–flg22 was pressure infiltrated with a 1 ml blunt syringe into a part or all of one leaf of 4-week-old soil-grown plants and distal tissues were examined by epifluorescence and confocal microscopy after 2 and 16 h, respectively. FAM–Y-flg22 was used in some experiments with similar results.
# as §1
# [5] = test system: detached Arabidopsis leaf; assay: Movement across a leaf blade; conditions: 1 h, epifluorescence
# Method: A 5 μl drop of water solution of 10 μM FAM–flg22 or FAM–scrambled peptide was placed on the abaxial side of a detached Arabidopsis leaf in a humid chamber. […] Excess peptide was removed after 0.5 h, leaf surface was washed with water and epifluorescence images of the adaxial side were taken during the next 30 min (0.5–1 h after treatment).
# The amount of peptide in plant cells was measured as total fluorescence per view field (integrated density) as in [Martins et al. (2015)], and was quantified with ImageJ in each channel in confocal and epifluorescence images. To allow comparison between experiments, fluorescence was calculated as a percentage of the signal in Col treated with TAMRA–flg22 or FAM–flg22. ^125I radioactivity in local and distal tissues was quantified from autoradiographs using a Cyclone Phosphorimager (Perkin Elmer) or in a scintillation counter (Packard Quantum Cobra D5002) and shown as percentage of total radioactivity in a plant. [^14C]sucrose radioactivity was quantified in a scintillation counter. Data from multiple experiments were analysed together using Prism software (GraphPad) (one-way ANOVA followed by Tukey’s test, or the t-test).
# [6] = Col leaf discs, 5–10 μM peptide with FM4-64 (6–8 μM), 1–2 h, confocal
# [7] = fls2 leaf discs, 5–10 μM peptide with FM4-64, 1–2 h, confocal
# [8] = Ws (lacks FLS2) leaf discs floated on 2 μM peptide 1–2 h, 16 picture areas (20 μm × 20 μm), confocal
# [9] = Ws/FLS2–GFP leaf discs floated on 2 μM peptide 1–2 h, 16 picture areas (20 μm × 20 μm), confocal
compound,measurement,setting,value
"CC(C)C[C@@H](C=O)NC(=O)[C@H](CC(C)C)NC(=O)[C@H](CC(C)C)NC(=O)OCc1ccccc1 [MG132, reference compound] (Cbz-Leu-Leu-Leu-aldehyde)",effect of inhibitor on long-distance movement of TAMRA–flg22,"[1]; Col, 5 μM TAMRA–flg22 with 50 μM MG132 or 50 mM BDM on filter paper disc",prevented
same,effect of inhibitor on initial binding/uptake of TAMRA–flg22,"[2]; Col leaf discs, 5 μM TAMRA–flg22 with 50 μM MG132 or 50 mM BDM added simultaneously, 1–2 h",did not prevent initial peptide binding/uptake
same,effect of inhibitor on overnight accumulation of TAMRA–flg22 in vacuoles,"[2]; Col leaf discs, 1–2 μM TAMRA–flg22 with 50 μM MG132 or 50 mM BDM, overnight",did not accumulate in vacuoles
"O=C1OC2(c3ccc(O)cc3Oc3cc(O)ccc32)c2ccccc21 [fluorescein, reference compound]",non-specific uptake in presence of active flg22,[2]; confocal,did not induce uptake
[125I-].[Na+] [Na^125I],"movement to distal leaves, Col versus fls2",[3],the same in Col and fls2
CC[C@H](C)[C@H](NC(=O)CNC(=O)c1ccc2c(c1)C(=O)OC21c2ccc(O)cc2Oc2cc(O)ccc21)C(=O)N[C@H](C(=O)N[C@@H](C)C(=O)N[C@@H](CO)C(=O)N[C@@H](CCCCN)C(=O)N[C@@H](C)C(=O)N[C@@H](CC(C)C)C(=O)NCC(=O)N[C@@H](C)C(=O)N[C@@H](CC(=O)O)C(=O)N[C@@H](CC(C)C)C(=O)N[C@@H](CCCNC(=N)N)C(=O)N[C@@H](CCCNC(=N)N)C(=O)N[C@H](C(=O)N[C@@H](CC(N)=O)C(=O)N[C@@H](CCC(N)=O)C(=O)N[C@@H](CO)C(=O)N[C@@H](C)C(=O)N[C@@H](CO)C(=O)N[C@@H](CCC(N)=O)C(=O)N[C@@H](CC(=O)O)C(=O)O)[C@@H](C)CC)[C@@H](C)O [FAM–scrambled peptide] (5FAM-GITASKALGADLRRINQSASQD-OH),detection within cells in distal part of infiltrated leaf,[4]; Col,not detected within cells
same,non-specific uptake in presence of active flg22,[2]; confocal,not observed
CC[C@H](C)[C@H](NC(=O)[C@H](CCC(N)=O)NC(=O)[C@H](CC(C)C)NC(=O)CNC(=O)[C@H](C)NC(=O)[C@H](C)NC(=O)[C@H](CC(=O)O)NC(=O)[C@H](CC(=O)O)NC(=O)[C@H](CCCCN)NC(=O)[C@H](C)NC(=O)[C@H](CO)NC(=O)[C@H](CC(N)=O)NC(=O)[C@@H](NC(=O)[C@H](CCCNC(=N)N)NC(=O)[C@H](CO)NC(=O)CNC(=O)[C@@H](NC(=O)[C@H](CO)NC(=O)[C@H](CC(C)C)NC(=O)[C@H](CCCNC(=N)N)NC(=O)[C@H](CCC(N)=O)NC(=O)c1ccc2c(c1)C(=O)OC21c2ccc(O)cc2Oc2cc(O)ccc21)[C@@H](C)O)[C@@H](C)CC)C(=O)N[C@@H](C)C(=O)O [FAM–flg22] (5FAM-QRLSTGSRINSAKDDAAGLQIA-OH),detection within cells in distal part of infiltrated leaf,[4]; Col,present within vascular cells
same,detection in distal orthostichous leaves,"[4]; Col, 5–10 μM infiltrated into part of one leaf of soil-grown plants, 16 h, epifluorescence",detected
same,detection within cells in distal part of infiltrated leaf,[4]; fls2,not detected within cells
same,detection in distal leaves,"[4]; fls2, 5–10 μM infiltrated into one leaf, 16 h, epifluorescence",not observed
same,detection on adaxial side of leaf after application to abaxial side,"[5]; Col detached leaf, 5 μl drop of 10 μM peptide, three experiments, n≥5",detected
same,mobility across a leaf blade,"[5]; fls2 and bak1 mutants, 10 μM peptide drop",reduced
same,number of foci overlapping with FM4-64,[2]; [6],212
same,total number of green (Ff22) fluorescent foci,[2]; [6],217
same,co-localization with endocytic dye FM4-64,"[2]; Col leaves, 5–10 μM peptide, 1–2 h incubation, confocal",co-localized with a subset of vesicles and MVBs
same,number of foci overlapping with FM4-64,[2]; [7],2
same,total number of green (Ff22) fluorescent foci,[2]; [7],10
same,signal in cells,"[2]; fls2 mutant, 5–10 μM peptide, 1–2 h incubation, confocal",not visible
CC[C@H](C)[C@H](NC(=O)[C@H](CCC(N)=O)NC(=O)[C@H](CC(C)C)NC(=O)CNC(=O)[C@H](C)NC(=O)[C@H](C)NC(=O)[C@H](CC(=O)O)NC(=O)[C@H](CC(=O)O)NC(=O)[C@H](CCCCN)NC(=O)[C@H](C)NC(=O)[C@H](CO)NC(=O)[C@H](CC(N)=O)NC(=O)[C@@H](NC(=O)[C@H](CCCNC(=N)N)NC(=O)[C@H](CO)NC(=O)CNC(=O)[C@@H](NC(=O)[C@H](CO)NC(=O)[C@H](CC(C)C)NC(=O)[C@H](CCCNC(=N)N)NC(=O)[C@H](CCC(N)=O)NC(=O)c1ccc2c(c1)C(=O)OC21c2ccc(N(C)C)cc2Oc2cc(N(C)C)ccc21)[C@@H](C)O)[C@@H](C)CC)C(=O)N[C@@H](C)C(=O)O [TAMRA–flg22] (5TAMRA-QRLSTGSRINSAKDDAAGLQIA-OH),detection in local (treated) tissue,"[1]; Col, 5 μM on filter paper disc on adaxial side of one leaf of in vitro-grown plants, confocal",detected preferentially in the vascular region
same,detection in distal leaves and flowers,"[1]; Col, 5 μM on filter paper disc on one leaf of in vitro-grown plants, confocal",detected
same,movement to distal organs from mixture of peptides,"[1]; WT Col, 5 μM TAMRA–flg22 + 10 μM FAM–scrambled peptide on filter paper disc, confocal, n=6","moved, to a significant extent"
same,overnight accumulation in plant cells,"[2]; Col leaf discs, 1 μM peptide with vacuolar dye BCECF (20 μM), overnight, confocal",accumulated in central vacuoles
same,number of overlapping red and green foci,[2]; [8],0
same,total number of red (Tf22) fluorescent foci,[2]; [8],5
same,number of foci overlapping with FLS2–GFP,[2]; [9],143
same,total number of red (Tf22) fluorescent foci,[2]; [9],161
same,internalization into vesicles,"[2]; Ws/FLS2–GFP leaf discs, 2 μM peptide, 1–2 h, confocal",found together in vesicles
same,initial (up to 1.5 h) uptake/binding,[2]; bak1 versus Col,not highly affected
same,overnight accumulation in plant cells,"[2]; fls2 and bak1 versus Col, leaf discs floated on 1–2 μM peptide overnight, confocal, P<0.0002, n≥7",inhibited
same,initial (up to 1.5 h) uptake/binding,"[2]; fls2 versus Col, P<0.05, n≥6",reduced
same,fluorescence signal inside cells,"[2]; non-transgenic wild-type Ws control or Col fls2, 1–2 h, confocal",No fluorescence signal was observed inside the cells
